According to the supplement of paper PMC10567573:
± gives the standard deviation.

Test: protein stability index of a GFP-peptide fusion (GPS, HEK-293T) (PSI 1-6); higher = more stable
[1] = treatment: DMSO, c terminus: a fixed tail appended
[2] = treatment: MLN4924 1 uM, 8 h, c terminus: a fixed tail appended
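Also: 24-mer peptide tiles fused after GFP, lentivirally expressed, FACS-sorted into six equal bins by GFP/DsRed ratio, decoded by Illumina sequencing, PSI is the read-weighted mean bin number.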

Sequence	protein stability index [1]	protein stability index [2]	protein stability index (treatment: DMSO, c terminus: native)	protein stability index (treatment: MLN4924 1 uM, 8 h, c terminus: native)
NSLWKKNKTICKERLQILCFFLLI [NLN]	2.9 ± 0.4	2.4 ± 0.42	–	–
AISLTKCLESTKLLADLKKCGDLE [MIA2]	2.64 ± 0.57	2.79 ± 0.69	–	–
THFASQEFFSANAISDQLLGAGSD [ADAMTSL2]	4.27 ± 0.23	4.23 ± 0.25	–	–
LTDAYGPPSNFLEIDIFNPQTVGV [SNX12]	2.87 ± 0.39	3.19 ± 0.39	–	–
CASPVTGPGSKRDAHFCAVCSDYA [ESR2]	3.08 ± 0.22	3.16 ± 0.29	–	–
KEMFTVGCCVFAFLVGLLFVQRSG [SLC6A17]	2.38 ± 0.66	3.13 ± 0.61	–	–
LEKWMQKNVEENLYSSSLGGGVAT [GLT8D2]	3.44 ± 0.2	3.69 ± 0.26	–	–
RELLDRAMREAIQSYPSQDKPLPP [SOAT2]	3.94 ± 0.12	3.95 ± 0.083	–	–
NDPSVNSQAQETTIIASNAEEAEI [TOR1AIP2]	5.5 ± 0.13	5.59 ± 0.34	–	–
QVNGHPDPFDEIILFSLPPALDWD [PTPN9]	2.27 ± 0.23	2.31 ± 0.4	–	–
QLELVILQSEPHRAGVQWKFAGSF [KCNK9]	2.7 ± 0.54	2.59 ± 0.44	–	–
DTLQNDYFAIKQEVVTPDNMCMGR [ETS1]	3.65 ± 0.31	4.05 ± 0.45	–	–
SYGGGSASSQHSEGSRSSGSNRSG [DVL3]	5.23 ± 0.081	5.16 ± 0.29	–	–
YTVSATAPGYDPETVTVTVGPAEP [CPN1]	3.61 ± 0.13	3.83 ± 0.39	–	–
NCIHRDIKPENILITKQGIIKICD [CDKL4]	2.51 ± 0.39	3.28 ± 0.24	–	–
HPNSRKSSAGGAKAGQPESRALAL [ZNF8]	4.67 ± 0.36	4.77 ± 0.16	–	–
RCRQSLEDSESLRIKEVEHMTRHL [LRRC45]	3.42 ± 0.14	3.46 ± 0.17	–	–
FESHDLLRKGFSCVKNELLPSHPL [POMP]	2.92 ± 0.31	3.05 ± 0.42	–	–
LHPRPDWEHSAPQRLPRSAPPGSL [PCDHGC5]	4.78 ± 0.19	4.75 ± 0.17	–	–
RADLVFIIDSSRSVNTHDYAKVKE [MATN2]	2.51 ± 0.32	2.72 ± 0.34	–	–
DKVRALEEANADLEVKIRDWYQRQ [KRT16]	4.01 ± 0.11	4.04 ± 0.27	–	–
DTTEEVDHKPKLCRLAKGENGYGF [PDZK1]	3.64 ± 0.32	3.79 ± 0.38	–	–

Sequence	protein stability index [1]	protein stability index [2]	protein stability index (treatment: DMSO, c terminus: native)	protein stability index (treatment: MLN4924 1 uM, 8 h, c terminus: native)
VEISRRLRHSNPRADPLVCATGLL [SPNS1]	2.22 ± 0.11	2.31 ± 0.32	–	–
MITLSEAYIQIWKRRDNDETNQQG [USP39]	3.15 ± 0.31	3.31 ± 0.38	–	–
PALDSLAYEYEREGLYEQAFQLLR [TRADD]	2.64 ± 0.15	2.9 ± 0.29	–	–
GSGFGGGYGGGLGAGFGGGLGAGF [KRT16]	2.27 ± 0.25	2.54 ± 0.67	–	–
LRDGGGLTPLELLLRQLGRDAGAT [ANKRD9]	2.79 ± 0.34	2.58 ± 0.27	–	–
SSFSRPLGYPYVNSVSSHASSPYI [DLX1]	2.62 ± 0.18	2.79 ± 0.51	–	–
ALCVVDTIKRSSQTGEWQNIAIMT [GFOD1]	2.31 ± 0.24	2.2 ± 0.14	–	–
MSQRNLNAKTEQGPTGVTMTSNPI [CDK11A]	4.53 ± 0.23	4.64 ± 0.17	–	–
IDGKGRGVIATKQFSRGDFVVEYH [KMT5A]	2.91 ± 0.26	3.03 ± 0.35	–	–
ELENLAAMDLELQKIAEKFSQRG [CHGB]	–	–	2.62 ± 0.28	3.33 ± 0.64
VPRTEAPAPASSTPQEPWPGPTAP [PDLIM7]	4.98 ± 0.22	5.2 ± 0.27	–	–
INCKGRSKSNLGWTPLHLACYFGH [OSBPL1A]	2.63 ± 0.32	2.28 ± 0.32	–	–
KCLQGNADGDGGGGQCCRRQDSPS [PCDHGC5]	5.25 ± 0.29	5.21 ± 0.1	–	–
VLAEGDNASRSLYPDAEDPQLGLD [PSD2]	5.52 ± 0.25	5.34 ± 0.15	–	–
MALTPVVVTLWYRAPEVLLQSTYA [CDK4]	3.04 ± 0.41	3.06 ± 0.45	–	–
WREFHYIQSKLGIVSLLLGTIHAL [STEAP1]	2.96 ± 0.56	3.15 ± 0.69	–	–
IWDINNQICTVKDIKAEPQPLSPA [ATF6]	3.96 ± 0.21	4.1 ± 0.24	–	–
RASRLQAPVLVAAPHSTFFDPIVL [LPCAT4]	2.6 ± 0.31	2.71 ± 0.2	–	–
LGDRDRSRAALVCRKWNQMMYSAE [FBXO39]	2.72 ± 0.21	2.79 ± 0.17	–	–
LSTLAGIRVMVHGRNHTPFLGHHS [SCNN1D]	2.69 ± 0.28	2.64 ± 0.23	–	–
INQLTFIMDANQTYLVSERLEREE [FAF2]	3.17 ± 0.15	3.15 ± 0.21	–	–
YFEGAPFPHPLWLRDTYKLWVPQP [PWWP2B]	2.05 ± 0.24	2.18 ± 0.3	–	–

Sequence	protein stability index [1]	protein stability index [2]	protein stability index (treatment: DMSO, c terminus: native)	protein stability index (treatment: MLN4924 1 uM, 8 h, c terminus: native)
LTCDALTELLAKITNTDVDCLKAC [CCND2]	2.37 ± 0.28	2.34 ± 0.27	–	–
FIPAHVAFDKKVLKFDAYFQEDVP [EFHC1]	2.24 ± 0.23	2.57 ± 0.58	–	–
SGAAASLNVDAAVQQWLQKGTPAS [CHIT1]	4.12 ± 0.33	4.01 ± 0.35	–	–
TPGDCPPGRRDEDAGEGIQCSQRM [TMEM175]	5.15 ± 0.37	5.25 ± 0.18	–	–
KTQSELASESEHIPKPQSTGWFGG [MIA2]	3.97 ± 0.12	4.43 ± 0.096	–	–
ASTEADKRLSRFDIEMSMRGDIFE [NLN]	4.02 ± 0.57	4.14 ± 0.27	–	–
WVLLFTPCSFVCWYRPMYKAFRSD [SCAMP3]	2.92 ± 0.31	3 ± 0.37	–	–
HVTDPLIGCKKPVSASGKEMDWAQ [SMG5]	3.78 ± 0.18	4.04 ± 0.24	–	–
PLLKLACTNTYVTGLSMIANGGAI [OR4A15]	2.15 ± 0.58	2.21 ± 0.72	–	–
TEYIESPDVENEVKRLLRSDAEAV [TAF7L]	4.97 ± 0.33	5.03 ± 0.22	–	–
SPPGSTKRRKSMSGASPKESTNPE [CDC25A]	5.47 ± 0.11	5.4 ± 0.21	–	–
TVQHGAVYSLEPRLCGGKGGFGSM [SDE2]	2.33 ± 0.37	2.39 ± 0.29	–	–
KIKVRFSFFLQIYLIMIFLGLYIN [HACD3]	3 ± 0.73	2.29 ± 0.96	–	–
VAIFIMSLNKRHSSGDGNSKLKSE [MFSD9]	2.77 ± 1.2	2.16 ± 0.12	–	–
EREASPSNSCQDSTDTESNNEEQR [IKZF1]	5.24 ± 0.45	5.61 ± 0.22	–	–
CGKYFQGRGLKSHAYIHSVQFSHH [USP39]	2.37 ± 0.42	2.04 ± 0.56	–	–
GTNEALLRQLRELEEQFALEAGGY [PRPH]	4.07 ± 0.24	3.92 ± 0.26	–	–
PLSDDHDEKYGVPSLEELGFDTDG [CRY1]	5.58 ± 0.18	5.62 ± 0.18	–	–
LGKGAFSVVRRCVKVLAGQEYAAK [CAMK2A]	2.61 ± 0.4	2.38 ± 0.61	–	–
LRSARGSRGGTRGWLPSHEGHLDD [RBMY1A1]	4.7 ± 0.35	4.78 ± 0.17	–	–
CGPIAGSRQALSFEVPPCNYDPEK	4.24 ± 0.23	4.13 ± 0.46	–	–
